B1: CBL peptide 540-555 (E3 ubiquitin-protein ligase CBL), 16-mer library wild type / YES SH3 (YES1 SH3 domain, residues 90-152) (parent complex)
chain 1: RDLPPPPPPDRPYSVG
chain 2: not shown
B2: ATXN2 peptide 913-928 (Ataxin-2), 16-mer library wild type / PABPC1 PABC (PABPC1 PABC domain, residues 544-623) (parent complex)
chain 1: TLNPNAKEFNPRSFSQ
chain 2: PLTASMLASAPPQEQKQMLGERLFPLIQAMHPTLAGKITGMLLEIDNSELLHMLESPESLRSKVDEAVAVLQAHQAKEAA

Variants of: B1
Assay: proteomic peptide phage display deep mutational scan (ProP-PD DMS): M13 P8 16-mer library selected against immobilised GST-tagged bait for four days (rounds), NGS of the eluted pools per day and pseudo-replica; bait immobilised on MaxiSorp plates (10 µg), library pre-cleared on GST, 2 h binding at 4 °C, five washes; one round per day, days 1-4; value from days 2 and 3

Variant | screen value
chain 1 S14G | 0.00254 average fractional NGS count over selection days 2 and 3 (reads of this peptide / all reads for the bait, averaged over …
chain 1 P12V | 0.002 average fractional NGS count over selection days 2 and 3 (reads of this peptide / all reads for the bait, averaged over …
chain 1 D10S | 0.000232 average fractional NGS count over selection days 2 and 3 (reads of this peptide / all reads for the bait, averaged over …
chain 1 P12G | 0.000184 average fractional NGS count over selection days 2 and 3 (reads of this peptide / all reads for the bait, averaged over …
chain 1 P12N | 0.000558 average fractional NGS count over selection days 2 and 3 (reads of this peptide / all reads for the bait, averaged over …
chain 1 P9G | 0.00146 average fractional NGS count over selection days 2 and 3 (reads of this peptide / all reads for the bait, averaged over …
chain 1 D2K | 0.000177 average fractional NGS count over selection days 2 and 3 (reads of this peptide / all reads for the bait, averaged over …
chain 1 P12M | 0.0175 average fractional NGS count over selection days 2 and 3 (reads of this peptide / all reads for the bait, averaged over …
chain 1 R11Q | 0.00199 average fractional NGS count over selection days 2 and 3 (reads of this peptide / all reads for the bait, averaged over …
chain 1 P12K | 0.00165 average fractional NGS count over selection days 2 and 3 (reads of this peptide / all reads for the bait, averaged over …
chain 1 D2S | 0.00111 average fractional NGS count over selection days 2 and 3 (reads of this peptide / all reads for the bait, averaged over …
chain 1 D2F | 0.000357 average fractional NGS count over selection days 2 and 3 (reads of this peptide / all reads for the bait, averaged over …
chain 1 D2M | 0.0201 average fractional NGS count over selection days 2 and 3 (reads of this peptide / all reads for the bait, averaged over …
chain 1 D10T | 0.00033 average fractional NGS count over selection days 2 and 3 (reads of this peptide / all reads for the bait, averaged over …
chain 1 D2Y | 0.00341 average fractional NGS count over selection days 2 and 3 (reads of this peptide / all reads for the bait, averaged over …
chain 1 P4F | 9.76e-05 average fractional NGS count over selection days 2 and 3 (reads of this peptide / all reads for the bait, averaged over …
chain 1 P9E | 0.000429 average fractional NGS count over selection days 2 and 3 (reads of this peptide / all reads for the bait, averaged over …
chain 1 S14E | 0.0212 average fractional NGS count over selection days 2 and 3 (reads of this peptide / all reads for the bait, averaged over …
chain 1 Y13K | 0.000696 average fractional NGS count over selection days 2 and 3 (reads of this peptide / all reads for the bait, averaged over …
chain 1 P12L | 0.0025 average fractional NGS count over selection days 2 and 3 (reads of this peptide / all reads for the bait, averaged over …
chain 1 P8G | 0.000141 average fractional NGS count over selection days 2 and 3 (reads of this peptide / all reads for the bait, averaged over …

Variant | screen value
chain 1 D2P | 0.00891 average fractional NGS count over selection days 2 and 3 (reads of this peptide / all reads for the bait, averaged over …
chain 1 S14P | 0.00266 average fractional NGS count over selection days 2 and 3 (reads of this peptide / all reads for the bait, averaged over …
chain 1 P5N | 0.00347 average fractional NGS count over selection days 2 and 3 (reads of this peptide / all reads for the bait, averaged over …
chain 1 D10L | 0.00104 average fractional NGS count over selection days 2 and 3 (reads of this peptide / all reads for the bait, averaged over …
chain 1 D10G | 0.00202 average fractional NGS count over selection days 2 and 3 (reads of this peptide / all reads for the bait, averaged over …
chain 1 D2A | 0.00577 average fractional NGS count over selection days 2 and 3 (reads of this peptide / all reads for the bait, averaged over …
chain 1 P8D | 0.000795 average fractional NGS count over selection days 2 and 3 (reads of this peptide / all reads for the bait, averaged over …
chain 1 P5V | 0.0116 average fractional NGS count over selection days 2 and 3 (reads of this peptide / all reads for the bait, averaged over …
chain 1 P9V | 0.00298 average fractional NGS count over selection days 2 and 3 (reads of this peptide / all reads for the bait, averaged over …
chain 1 S14V | 7.3e-05 average fractional NGS count over selection days 2 and 3 (reads of this peptide / all reads for the bait, averaged over …
chain 1 P6R | 0.00111 average fractional NGS count over selection days 2 and 3 (reads of this peptide / all reads for the bait, averaged over …
chain 1 Y13H | 0.000183 average fractional NGS count over selection days 2 and 3 (reads of this peptide / all reads for the bait, averaged over …
chain 1 D2G | 0.00344 average fractional NGS count over selection days 2 and 3 (reads of this peptide / all reads for the bait, averaged over …
chain 1 P9T | 0.000876 average fractional NGS count over selection days 2 and 3 (reads of this peptide / all reads for the bait, averaged over …
chain 1 P7D | 0.00038 average fractional NGS count over selection days 2 and 3 (reads of this peptide / all reads for the bait, averaged over …
chain 1 Y13S | 0.00123 average fractional NGS count over selection days 2 and 3 (reads of this peptide / all reads for the bait, averaged over …
chain 1 P9I | 0.000523 average fractional NGS count over selection days 2 and 3 (reads of this peptide / all reads for the bait, averaged over …
chain 1 V15F | 0.00636 average fractional NGS count over selection days 2 and 3 (reads of this peptide / all reads for the bait, averaged over …
chain 1 P5D | 0.00109 average fractional NGS count over selection days 2 and 3 (reads of this peptide / all reads for the bait, averaged over …
chain 1 D2N | 0.00453 average fractional NGS count over selection days 2 and 3 (reads of this peptide / all reads for the bait, averaged over …
chain 1 V15Y | 0.00192 average fractional NGS count over selection days 2 and 3 (reads of this peptide / all reads for the bait, averaged over …

Variant | screen value
chain 1 V15R | 7.8e-05 average fractional NGS count over selection days 2 and 3 (reads of this peptide / all reads for the bait, averaged over …
chain 1 P4A | 0.000327 average fractional NGS count over selection days 2 and 3 (reads of this peptide / all reads for the bait, averaged over …
chain 1 P12W | 0.00363 average fractional NGS count over selection days 2 and 3 (reads of this peptide / all reads for the bait, averaged over …
chain 1 P9F | 0.000295 average fractional NGS count over selection days 2 and 3 (reads of this peptide / all reads for the bait, averaged over …
chain 1 P6L | 0.000189 average fractional NGS count over selection days 2 and 3 (reads of this peptide / all reads for the bait, averaged over …
chain 1 D2R | 0.000105 average fractional NGS count over selection days 2 and 3 (reads of this peptide / all reads for the bait, averaged over …
chain 1 L3G | 7.18e-05 average fractional NGS count over selection days 2 and 3 (reads of this peptide / all reads for the bait, averaged over …
chain 1 P7V | 0.00515 average fractional NGS count over selection days 2 and 3 (reads of this peptide / all reads for the bait, averaged over …
chain 1 Y13N | 0.00025 average fractional NGS count over selection days 2 and 3 (reads of this peptide / all reads for the bait, averaged over …
chain 1 R11Y | 0.000176 average fractional NGS count over selection days 2 and 3 (reads of this peptide / all reads for the bait, averaged over …
chain 1 P6K | 0.00059 average fractional NGS count over selection days 2 and 3 (reads of this peptide / all reads for the bait, averaged over …
chain 1 P12S | 0.00406 average fractional NGS count over selection days 2 and 3 (reads of this peptide / all reads for the bait, averaged over …
chain 1 P12D | 0.00117 average fractional NGS count over selection days 2 and 3 (reads of this peptide / all reads for the bait, averaged over …
chain 1 R1V | 0.000334 average fractional NGS count over selection days 2 and 3 (reads of this peptide / all reads for the bait, averaged over …
chain 1 L3V | 0.00179 average fractional NGS count over selection days 2 and 3 (reads of this peptide / all reads for the bait, averaged over …
chain 1 D10Y | 0.000449 average fractional NGS count over selection days 2 and 3 (reads of this peptide / all reads for the bait, averaged over …
chain 1 P4V | 0.000427 average fractional NGS count over selection days 2 and 3 (reads of this peptide / all reads for the bait, averaged over …
chain 1 R11I | 0.000246 average fractional NGS count over selection days 2 and 3 (reads of this peptide / all reads for the bait, averaged over …
chain 1 P8T | 0.0233 average fractional NGS count over selection days 2 and 3 (reads of this peptide / all reads for the bait, averaged over …

Variants of: B2
Assay: as above

Variant | screen value
chain 1 P4L | 0.000532 average fractional NGS count over selection days 2 and 3 (reads of this peptide / all reads for the bait, averaged over …
chain 1 P11S | 0.000475 average fractional NGS count over selection days 2 and 3 (reads of this peptide / all reads for the bait, averaged over …
chain 1 F14Y | 0.00139 average fractional NGS count over selection days 2 and 3 (reads of this peptide / all reads for the bait, averaged over …
chain 1 N10A | 0.000525 average fractional NGS count over selection days 2 and 3 (reads of this peptide / all reads for the bait, averaged over …
chain 1 E8A | 0.000246 average fractional NGS count over selection days 2 and 3 (reads of this peptide / all reads for the bait, averaged over …
chain 1 R12H | 0.00563 average fractional NGS count over selection days 2 and 3 (reads of this peptide / all reads for the bait, averaged over …
chain 1 F14I | 0.000362 average fractional NGS count over selection days 2 and 3 (reads of this peptide / all reads for the bait, averaged over …
chain 1 N5H | 0.00507 average fractional NGS count over selection days 2 and 3 (reads of this peptide / all reads for the bait, averaged over …
chain 1 T1A | 0.00105 average fractional NGS count over selection days 2 and 3 (reads of this peptide / all reads for the bait, averaged over …
chain 1 P4I | 0.00226 average fractional NGS count over selection days 2 and 3 (reads of this peptide / all reads for the bait, averaged over …
chain 1 P11Y | 0.000724 average fractional NGS count over selection days 2 and 3 (reads of this peptide / all reads for the bait, averaged over …
chain 1 S13P | 0.0016 average fractional NGS count over selection days 2 and 3 (reads of this peptide / all reads for the bait, averaged over …
chain 1 S15P | 0.012 average fractional NGS count over selection days 2 and 3 (reads of this peptide / all reads for the bait, averaged over …
chain 1 N10P | 0.000829 average fractional NGS count over selection days 2 and 3 (reads of this peptide / all reads for the bait, averaged over …
